Laboratory results reported in publication PMC9352680, “A comprehensive thermodynamic model for RNA binding by the Saccharomyces cerevisiae Pumilio protein PUF4”.

T1: PUF4 RNA-binding domain (Saccharomyces cerevisiae, UniProt P25339 537-888)
T1 sequence: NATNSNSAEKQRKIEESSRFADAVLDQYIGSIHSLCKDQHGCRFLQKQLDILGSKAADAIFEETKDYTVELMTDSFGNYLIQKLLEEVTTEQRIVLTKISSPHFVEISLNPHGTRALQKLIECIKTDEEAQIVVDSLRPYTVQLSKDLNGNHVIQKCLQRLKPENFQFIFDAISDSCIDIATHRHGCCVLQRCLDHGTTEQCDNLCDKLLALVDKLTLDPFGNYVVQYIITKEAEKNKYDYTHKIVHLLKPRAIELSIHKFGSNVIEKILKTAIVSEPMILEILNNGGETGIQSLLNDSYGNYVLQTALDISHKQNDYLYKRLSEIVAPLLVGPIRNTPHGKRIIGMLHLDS

B1: Ic_S1_P5E.1_K5.1_C5.1_H5.1_A5.1_[T5G]_[T6C]_F5.1_[T9A]_[A10G]_T5.1 (ssRNA)
RNA: UCUCUUUGUAGCAUAGUCUCUU
B2: Ic_S1_P5E.1_K5.1_C5.1_H5.1_A5.1_[T5A]_[T6A]_[A7T]_F5.1_[T8A]_[T9A]_[A10C]_T5.1 (ssRNA)
RNA: UCUCUUUGUAAAUAACUCUCUU
B3: Ic_S1_P5E.1_K5.1_C5.1_H5.1_A5.1_[T5A]_[T6G]_[A7T]_F5.1_[T8A]_[T9A]_[A10C]_T5.1 (ssRNA)
RNA: UCUCUUUGUAAGUAACUCUCUU
B4: Ic_S1_P5E.1_K5.1_C5.1_H5.1_A5.1_[T5A]_[T6C]_[A7T]_F5.1_[T8C]_[T9G]_[A10G]_T5.1 (ssRNA)
RNA: UCUCUUUGUAACUCGGUCUCUU
B5: Ic_S1_P5E.1_K5.1_C5.1_H5.1_A5.1_[T6A]_[A7C]_F5.1_[T8C]_[T9C]_[A10T]_T5.1 (ssRNA)
RNA: UCUCUUUGUAUACCCUUCUCUU
B6: Ic_S1_P5E.1_K5.1_C5.1_H5.1_A5.1_[T5G]_[T6C]_F5.1_[T8C]_T5.1 (ssRNA)
RNA: UCUCUUUGUAGCACUAUCUCUU
B7: Ic_S1_P5E.1_K5.1_C5.1_H5.1_A5.1_[A7C]_F5.1_[T8G]_[T9G]_[A10T]_T5.1 (ssRNA)
RNA: UCUCUUUGUAUUCGGUUCUCUU
B8: Ic_S1_P5E.1_K5.1_C5.1_H5.1_A5.1_[T5G]_[A7C]_F5.1_[T9A]_T5.1 (ssRNA)
RNA: UCUCUUUGUAGUCUAAUCUCUU
B9: Ic_S1_P5E.1_K5.1_C5.1_H5.1_A5.1_[T5A]_[T6A]_[A7C]_F5.1_[T9G]_[A10T]_T5.1 (ssRNA)
RNA: UCUCUUUGUAAACUGUUCUCUU
B10: Ic_S1_P5E.1_K5.1_C5.1_H5.1_A5.1_[T6G]_F5.1_[T8C]_[T9C]_T5.1 (ssRNA)
RNA: UCUCUUUGUAUGACCAUCUCUU
B11: Ic_S1_P5E.1_K5.1_C5.1_H5.1_A5.1_[T5A]_[T6G]_[A7C]_F5.1_[T9C]_[A10C]_T5.1 (ssRNA)
RNA: UCUCUUUGUAAGCUCCUCUCUU
B12: Ic_S1_P5E.1_K5.1_C5.1_H5.1_A5.1_[T5A]_[T6A]_[A7T]_F5.1_[A10T]_T5.1 (ssRNA)
RNA: UCUCUUUGUAAAUUUUUCUCUU
B13: Ic_S1_P5E.1_K5.1_C5.1_H5.1_A5.1_[T6G]_[A7T]_F5.1_[T8A]_[T9C]_[A10T]_T5.1 (ssRNA)
RNA: UCUCUUUGUAUGUACUUCUCUU
B14: Ic_S1_P5E.1_K5.1_C5.1_H5.1_A5.1_[T5A]_[T6C]_[A7C]_F5.1_[T8C]_[T9A]_T5.1 (ssRNA)
RNA: UCUCUUUGUAACCCAAUCUCUU
B15: Ic_S1_P5E.1_K5.1_C5.1_H5.1_A5.1_[A7T]_F5.1_[T8G]_[T9C]_[A10C]_T5.1 (ssRNA)
RNA: UCUCUUUGUAUUUGCCUCUCUU
B16: Ic_S1_P5E.1_K5.1_C5.1_H5.1_A5.1_[T6A]_[A7C]_F5.1_[T9A]_[A10G]_T5.1 (ssRNA)
RNA: UCUCUUUGUAUACUAGUCUCUU
B17: Ic_S1_P5E.1_K5.1_C5.1_H5.1_A5.1_[T5C]_[A7T]_F5.1_[T8C]_[T9C]_T5.1 (ssRNA)
RNA: UCUCUUUGUACUUCCAUCUCUU
B18: Ib_S1_P3E.1_K3.1_C3.1_H3.1_[G2T]_[T3C]_A3.1_F3.1_T3.1 (ssRNA)
RNA: UCUCUUUUCAUAUAUCUCUU
B19: Ic_S1_P5E.1_K5.1_C5.1_H5.1_A5.1_[T5A]_[A7C]_F5.1_[T9G]_T5.1 (ssRNA)
RNA: UCUCUUUGUAAUCUGAUCUCUU
B20: Ic_S1_P5E.1_K5.1_C5.1_H5.1_A5.1_[T5A]_[A7T]_F5.1_[T8A]_[T9C]_[A10G]_T5.1 (ssRNA)
RNA: UCUCUUUGUAAUUACGUCUCUU
B21: Ic_S1_P5E.1_K5.1_C5.1_H5.1_A5.1_[T5A]_F5.1_[T8A]_[A10T]_T5.1 (ssRNA)
RNA: UCUCUUUGUAAUAAUUUCUCUU
B22: Ic_S1_P5E.1_K5.1_C5.1_H5.1_A5.1_[T5C]_[A7G]_F5.1_[T8C]_[T9G]_[A10C]_T5.1 (ssRNA)
RNA: UCUCUUUGUACUGCGCUCUCUU
B23: Ic_S1_P5E.1_K5.1_C5.1_H5.1_A5.1_[T6C]_[A7G]_F5.1_[T9A]_[A10C]_T5.1 (ssRNA)
RNA: UCUCUUUGUAUCGUACUCUCUU
B24: Ic_S1_P5E.1_K5.1_C5.1_H5.1_A5.1_[T6A]_F5.1_[T8C]_[T9A]_[A10T]_T5.1 (ssRNA)
RNA: UCUCUUUGUAUAACAUUCUCUU
B25: Ic_S1_P5E.1_K5.1_C5.1_H5.1_A5.1_[T5A]_[T6C]_[A7G]_F5.1_[T8A]_[T9C]_[A10T]_T5.1 (ssRNA)
RNA: UCUCUUUGUAACGACUUCUCUU
B26: Ic_S1_P5E.1_K5.1_C5.1_H5.1_A5.1_[T5C]_[T6C]_F5.1_[T8A]_[T9A]_[A10C]_T5.1 (ssRNA)
RNA: UCUCUUUGUACCAAACUCUCUU
B27: Ic_S1_P5E.1_K5.1_C5.1_H5.1_A5.1_[T5C]_[T6A]_F5.1_[T8A]_[T9A]_[A10T]_T5.1 (ssRNA)
RNA: UCUCUUUGUACAAAAUUCUCUU
B28: Ic_S1_P5E.1_K5.1_C5.1_H5.1_A5.1_[T5A]_[T6A]_F5.1_[T8C]_[T9G]_[A10G]_T5.1 (ssRNA)
RNA: UCUCUUUGUAAAACGGUCUCUU
B29: Ic_S1_P5E.1_K5.1_C5.1_H5.1_A5.1_[T5A]_[T6A]_[A7T]_F5.1_[T9G]_[A10T]_T5.1 (ssRNA)
RNA: UCUCUUUGUAAAUUGUUCUCUU
B30: Ib_S1_P3E.1_K3.1_C3.1_H3.1_[G2C]_[T3G]_A3.1_F3.1_T3.1 (ssRNA)
RNA: UCUCUUUCGAUAUAUCUCUU
B31: Ic_S1_P5E.1_K5.1_C5.1_H5.1_A5.1_[T5A]_[A7C]_F5.1_[T9C]_[A10T]_T5.1 (ssRNA)
RNA: UCUCUUUGUAAUCUCUUCUCUU
B32: Ic_S1_P5E.1_K5.1_C5.1_H5.1_A5.1_[T5A]_[T6A]_F5.1_[A10G]_T5.1 (ssRNA)
RNA: UCUCUUUGUAAAAUUGUCUCUU

The binders below were run against T1, PUF4 RNA-binding domain (assay: Mg; RNA-MaP; 20 mM Na-HEPES pH 7.4, 30 mM KOAc, 0.75 mM MgCl2, 0.1% Tween-20, 5% glycerol, 0.1 mg/mL BSA, 2 mM DTT; 25 C; 0.0125-409.6 nM protein). Details: tags: N-His6-TEV cleaved; C-SNAP kept, Cy3B-labelled; label: tethered on chip by stalled RNA polymerase.
With B1 the Kd was 9.57 nM. For B2, the Kd was 31.1 nM. For B3, the Kd was > 2300 nM. B4 was tested, and the Kd was > 2300 nM. In the case of B5, the Kd is reported as 103 nM. Work on B6 yielded a Kd of 45.5 nM. B7 gave a Kd of 578 nM. B8 showed a Kd of 36 nM. In the case of B9, the Kd is reported as 12.6 nM. B10 was tested, and the Kd was 1110 nM. For B11, the Kd was 1500 nM. B12 gave a Kd of 22.4 nM. Binder B13 has a Kd of 64.7 nM. With B14 the Kd was 1740 nM. Work on B15 yielded a Kd of 568 nM. Binder B16 has a Kd of 0.331 nM. B17 showed a Kd of 666 nM. For B18, the Kd was > 2300 nM. With B19 the Kd was 83.4 nM. For B20, the Kd was 613 nM. B21 gave a Kd of 324 nM. With B22 the Kd was 1380 nM. B23 was tested, and the Kd was 13.9 nM. For B24, the Kd was 12.6 nM. B25 was tested, and the Kd was > 2300 nM. With B26 the Kd was 68.1 nM. For B27, the Kd was 30.9 nM. B28 showed a Kd of 625 nM. Binder B29 has a Kd of 11.5 nM. With B30 the Kd was > 2300 nM. With B31 the Kd was 440 nM. For B32, the Kd was 22.4 nM.
